# Test system: chimeric Caspase-9 polypeptide
# Assay: Caspase-9 mutant classes and basal activity (Table 5)
# Type: cell-based
# Details: Caspase-9 mutant class; for Basal Activity: basal (ligand-independent) signaling compared with unmodified chimeric Caspase-9; for IC50: ligand IC50 compared with unmodified chimeric Caspase-9
# Description: Even though homo-dimerization of wild-type initiator Caspase-9 is energetically unfavorable, making them mostly monomers in solution [14-16], the low-level inherent basal activity of unprocessed Caspase-9 [15, 17] is enhanced in the presence of the Apaf-1-based “apoptosome”, its natural allosteric regulator [6]. Moreover, supra-physiological expression levels and/or co-localization could lead to proximity-driven dimerization, further enhancing basal activation. The modified cells of the present application may comprise nucleic acids coding for a chimeric Caspase-9 polypeptide having lower basal signaling activity. Polynucleotides comprising Caspase-9 mutants with lower basal signaling may be expressed in the modified cells used for cell therapy herein. In these examples, the modified cells may include a safety switch, comprising a polynucleotide encoding a lower basal signaling chimeric Caspase-9 polypeptide. In the event of an adverse event following administration of the modified cells comprising the chimeric signaling polypeptides or chimeric antigen receptors herein, Caspase-9 activity may be induced by administering the dimerizer to the patient, thus inducing apoptosis and clearance of some, or all of the modified cells. In some examples, the amount of dimerizer administered may be determined as an amount designed to remove the highest amount, at least 80% or 90% of the modified cells. In other examples, the amount of dimerizer administered may be determined as an amount designed to remove only a portion of the modified cells, in order to alleviate negative symptoms or conditions, while leaving a sufficient amount of therapeutic modified cells in the patient, in order to continue therapy. Methods for using chimeric Caspase-9 polypeptides to induce apoptosis are discussed in PCT Application Number PCT/US2011/037381 by Malcolm K. Brenner et al., titled Methods for Inducing Selective Apoptosis, filed May 20, 2011, and in U.S. patent application Ser. No. 13/112,739 by Malcolm K. Brenner et al., titled Methods for Inducing Selective Apoptosis, filed May 20, 2011, issued Jul. 28, 2015 as U.S. Pat. No. 9,089,520. Chimeric caspase polypeptides having modified basal activity are discussed in PCT Application Serial Number PCT/US2014/022004 by David Spencer et al., titled Modified Caspase Polypeptides and Uses Thereof, filed Mar. 7, 2014, published Oct. 9, 2014 as WO2014/164348, and in U.S. patent application Ser. No. 13/792,135 by David Spencer et al., titled Modified Caspase Polypeptides and Uses Thereof, filed Mar. 7, 2014; and in U.S. patent application Ser. No. 14/640,553 by Spencer et al., filed Mar. 6, 2015. Methods for inducing partial apoptosis of the therapeutic modified cells are discussed in PCT Application Number PCT/US14/040964 by Kevin Slawin et al., titled Methods for Inducing Partial Apoptosis Using Caspase Polypeptides, filed Jun. 4, 2014, published Dec. 11, 2014 as WO2014/197638, and in U.S. patent application Ser. No. 14/296,404 by Kevin Slawin et al., titled Methods for Inducing Partial Apoptosis Using Caspase Polypeptides, filed Jun. 4, 2014. These patent applications and publications are all incorporated by reference herein in their entireties.
# Chain of chimeric Caspase-9 polypeptide (P62942 2-108 F37V limits assumed): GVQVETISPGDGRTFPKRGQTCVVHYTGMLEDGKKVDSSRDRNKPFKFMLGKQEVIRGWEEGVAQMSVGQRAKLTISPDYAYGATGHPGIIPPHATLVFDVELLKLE
Basal Activity,IC50,Molecule
Similar,Similar,C403T (protein) GFGDVGALESLRGNADLAYILSMEPCGHCLIINNVNFCRESGLRTRTGSNIDCEKLRRRFSSLHFMVEVKGDLTAKKMVLALLELARQDHGALDCCVVVILSHGCQASHLQFPGAVYGTDGCPVSVEKIVNIFNGTSCPSLGGKPKLFFIQACGGEQKDHGFEVASTSPEDESPGSNPEPDATPFQEGLRTFDQLDAISSLPTPSDIFVSYSTFPGFVSWRDPKSGSWYVETLDDIFEQWAHSEDLQSLLLRVANAVSVKGIYKQMPGTFNFLRKKLFFKTSASRA
Similar,Similar,C403S (protein) GFGDVGALESLRGNADLAYILSMEPCGHCLIINNVNFCRESGLRTRTGSNIDCEKLRRRFSSLHFMVEVKGDLTAKKMVLALLELARQDHGALDCCVVVILSHGCQASHLQFPGAVYGTDGCPVSVEKIVNIFNGTSCPSLGGKPKLFFIQACGGEQKDHGFEVASTSPEDESPGSNPEPDATPFQEGLRTFDQLDAISSLPTPSDIFVSYSTFPGFVSWRDPKSGSWYVETLDDIFEQWAHSEDLQSLLLRVANAVSVKGIYKQMPGSFNFLRKKLFFKTSASRA
Increased,,N405T (protein) GFGDVGALESLRGNADLAYILSMEPCGHCLIINNVNFCRESGLRTRTGSNIDCEKLRRRFSSLHFMVEVKGDLTAKKMVLALLELARQDHGALDCCVVVILSHGCQASHLQFPGAVYGTDGCPVSVEKIVNIFNGTSCPSLGGKPKLFFIQACGGEQKDHGFEVASTSPEDESPGSNPEPDATPFQEGLRTFDQLDAISSLPTPSDIFVSYSTFPGFVSWRDPKSGSWYVETLDDIFEQWAHSEDLQSLLLRVANAVSVKGIYKQMPGCFTFLRKKLFFKTSASRA
Increased,,A331K (protein) GFGDVGALESLRGNADLAYILSMEPCGHCLIINNVNFCRESGLRTRTGSNIDCEKLRRRFSSLHFMVEVKGDLTAKKMVLALLELARQDHGALDCCVVVILSHGCQASHLQFPGAVYGTDGCPVSVEKIVNIFNGTSCPSLGGKPKLFFIQACGGEQKDHGFEVASTSPEDESPGSNPEPDATPFQEGLRTFDQLDKISSLPTPSDIFVSYSTFPGFVSWRDPKSGSWYVETLDDIFEQWAHSEDLQSLLLRVANAVSVKGIYKQMPGCFNFLRKKLFFKTSASRA
Similar,Similar,N405A (protein) GFGDVGALESLRGNADLAYILSMEPCGHCLIINNVNFCRESGLRTRTGSNIDCEKLRRRFSSLHFMVEVKGDLTAKKMVLALLELARQDHGALDCCVVVILSHGCQASHLQFPGAVYGTDGCPVSVEKIVNIFNGTSCPSLGGKPKLFFIQACGGEQKDHGFEVASTSPEDESPGSNPEPDATPFQEGLRTFDQLDAISSLPTPSDIFVSYSTFPGFVSWRDPKSGSWYVETLDDIFEQWAHSEDLQSLLLRVANAVSVKGIYKQMPGCFAFLRKKLFFKTSASRA

# The next lines start with the molecule.
Molecule,Basal Activity,IC50
"316ATPF^319AVPI (SMAC/Diablo) (protein, UniProt P55211 1-416, looked up, variant T317V F319I) MDEADRRLLRRCRLRLVEELQVDQLWDALLSRELFRPHMIEDIQRAGSGSRRDQARQLIIDLETRGSQALPLFISCLEDTGQDMLASFLRTNRQAAKLSKPTLENLTPVVLRPEIRKPEVLRPETPRPVDIGSGGFGDVGALESLRGNADLAYILSMEPCGHCLIINNVNFCRESGLRTRTGSNIDCEKLRRRFSSLHFMVEVKGDLTAKKMVLALLELAQQDHGALDCCVVVILSHGCQASHLQFPGAVYGTDGCPVSVEKIVNIFNGTSCPSLGGKPKLFFIQACGGEQKDHGFEVASTSPEDESPGSNPEPDAVPIQEGLRTFDQLDAISSLPTPSDIFVSYSTFPGFVSWRDPKSGSWYVETLDDIFEQWAHSEDLQSLLLRVANAVSVKGIYKQMPGCFNFLRKKLFFKTS",Similar,Similar
T317C (protein) GFGDVGALESLRGNADLAYILSMEPCGHCLIINNVNFCRESGLRTRTGSNIDCEKLRRRFSSLHFMVEVKGDLTAKKMVLALLELARQDHGALDCCVVVILSHGCQASHLQFPGAVYGTDGCPVSVEKIVNIFNGTSCPSLGGKPKLFFIQACGGEQKDHGFEVASTSPEDESPGSNPEPDACPFQEGLRTFDQLDAISSLPTPSDIFVSYSTFPGFVSWRDPKSGSWYVETLDDIFEQWAHSEDLQSLLLRVANAVSVKGIYKQMPGCFNFLRKKLFFKTSASRA,Similar,Similar
L329K (protein) GFGDVGALESLRGNADLAYILSMEPCGHCLIINNVNFCRESGLRTRTGSNIDCEKLRRRFSSLHFMVEVKGDLTAKKMVLALLELARQDHGALDCCVVVILSHGCQASHLQFPGAVYGTDGCPVSVEKIVNIFNGTSCPSLGGKPKLFFIQACGGEQKDHGFEVASTSPEDESPGSNPEPDATPFQEGLRTFDQKDAISSLPTPSDIFVSYSTFPGFVSWRDPKSGSWYVETLDDIFEQWAHSEDLQSLLLRVANAVSVKGIYKQMPGCFNFLRKKLFFKTSASRA,Increased,
D330A-N405T (protein) GFGDVGALESLRGNADLAYILSMEPCGHCLIINNVNFCRESGLRTRTGSNIDCEKLRRRFSSLHFMVEVKGDLTAKKMVLALLELARQDHGALDCCVVVILSHGCQASHLQFPGAVYGTDGCPVSVEKIVNIFNGTSCPSLGGKPKLFFIQACGGEQKDHGFEVASTSPEDESPGSNPEPDATPFQEGLRTFDQLAAISSLPTPSDIFVSYSTFPGFVSWRDPKSGSWYVETLDDIFEQWAHSEDLQSLLLRVANAVSVKGIYKQMPGCFTFLRKKLFFKTSASRA,Increased,
F326K (protein) GFGDVGALESLRGNADLAYILSMEPCGHCLIINNVNFCRESGLRTRTGSNIDCEKLRRRFSSLHFMVEVKGDLTAKKMVLALLELARQDHGALDCCVVVILSHGCQASHLQFPGAVYGTDGCPVSVEKIVNIFNGTSCPSLGGKPKLFFIQACGGEQKDHGFEVASTSPEDESPGSNPEPDATPFQEGLRTKDQLDAISSLPTPSDIFVSYSTFPGFVSWRDPKSGSWYVETLDDIFEQWAHSEDLQSLLLRVANAVSVKGIYKQMPGCFNFLRKKLFFKTSASRA,Increased,
F319A (protein) GFGDVGALESLRGNADLAYILSMEPCGHCLIINNVNFCRESGLRTRTGSNIDCEKLRRRFSSLHFMVEVKGDLTAKKMVLALLELARQDHGALDCCVVVILSHGCQASHLQFPGAVYGTDGCPVSVEKIVNIFNGTSCPSLGGKPKLFFIQACGGEQKDHGFEVASTSPEDESPGSNPEPDATPAQEGLRTFDQLDAISSLPTPSDIFVSYSTFPGFVSWRDPKSGSWYVETLDDIFEQWAHSEDLQSLLLRVANAVSVKGIYKQMPGCFNFLRKKLFFKTSASRA,Similar,Similar
T317E (protein) GFGDVGALESLRGNADLAYILSMEPCGHCLIINNVNFCRESGLRTRTGSNIDCEKLRRRFSSLHFMVEVKGDLTAKKMVLALLELARQDHGALDCCVVVILSHGCQASHLQFPGAVYGTDGCPVSVEKIVNIFNGTSCPSLGGKPKLFFIQACGGEQKDHGFEVASTSPEDESPGSNPEPDAEPFQEGLRTFDQLDAISSLPTPSDIFVSYSTFPGFVSWRDPKSGSWYVETLDDIFEQWAHSEDLQSLLLRVANAVSVKGIYKQMPGCFNFLRKKLFFKTSASRA,Increased,
P318A (protein) GFGDVGALESLRGNADLAYILSMEPCGHCLIINNVNFCRESGLRTRTGSNIDCEKLRRRFSSLHFMVEVKGDLTAKKMVLALLELARQDHGALDCCVVVILSHGCQASHLQFPGAVYGTDGCPVSVEKIVNIFNGTSCPSLGGKPKLFFIQACGGEQKDHGFEVASTSPEDESPGSNPEPDATAFQEGLRTFDQLDAISSLPTPSDIFVSYSTFPGFVSWRDPKSGSWYVETLDDIFEQWAHSEDLQSLLLRVANAVSVKGIYKQMPGCFNFLRKKLFFKTSASRA,Similar,Similar

# Source: patent US20210147507A1, “METHODS TO AUGMENT OR ALTER SIGNAL TRANSDUCTION” (Bellicum Pharmaceuticals, Inc., priority 2017, published 2021)
